One molecule from publication PMC11649694, “ZBTB48 is a priming factor regulating B-cell-specific CIITA expression” can be followed below.

This data set has as its target T1, ZBTB48 ZnF10-11-C (Homo sapiens, UniProt P10074 548-620).
T1 sequence: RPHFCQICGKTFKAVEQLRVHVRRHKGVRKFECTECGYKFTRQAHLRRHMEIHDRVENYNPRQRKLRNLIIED
Put plainly: X-ray crystallography; ZnF11 contacts G10G11G12; R614 contacts G12 and C8T9 of other strand; Pull-down: 150 mM NaCl, 50 mM Tris-HCl pH 7.5, 5 mM MgCl2, 0.5% Igepal CA-630, 1 mM DTT, 20 ug salmon sperm DNA, 4 C 2 h; crystals: 0.2 M imidazole malate pH 8.5, 20% PEG 4K, 20 C. The conditions noted are these: protein: recombinant; tags: GST removed by TEV; 5' overhang 1 nt at both ends, 15 bp.

B1: CIITA e.2 crystal duplex (dsDNA)
DNA 1: CACAAGTGAGGGATCA
DNA 2: GTGATCCCTCACTTGT
As to B1, the binding result is “binds”.
